Here are results for two molecules from patent US20260273042A1 (INTERNATIONAL AIDS VACCINE INITIATIVE, published 2026).

In general, Kd refers to the free concentration of one partner at which half of the binding sites on the other are occupied at equilibrium, for simple one-to-one binding. Low readings indicate higher affinity, high ones lower affinity.

In assay [1] the target is BG505 MD53. The assay is described as follows: SPR (ligand and analyte not given).
The target in assay [2] is AC10 Olio6. As to the kind of experiment: SPR (ligand and analyte not given).
The target of assay [3] is MD39-10MUT. As to the kind of experiment: SPR, trimer ligand, Fab analyte (1-to-1 fit relatively poor) [panel A]. (In general: SPR reads the build-up and loss of mass on a sensor chip optically.)

B1: PGT145 (antibody, V domains shown)
VH: QVQLVQSGAEVKKPGSSVKVSCKASGNSFSNHDVHWVRQATGQGLEWMGWMSHEGDKTGLAQKFQGRVTITRDSGASTVYMELRGLTADDTAIYYCLTGSKHRLRDYFLYNEYGPNYEEWGDYLATLDVWGHGTAVTVSS
VL: EVVITQSPLFLPVTPGEAASLSCKCSHSLQHSTGANYLAWYLQRPGQTPRLLIHLATHRASGVPDRFSGSGSGTDFTLKISRVESDDVGTYYCMQGLHSPWTFGQGTKVEIKR
On to B1, for which the Kd stood at 22 nM in assay [1] and 53 nM in assay [2].

B2: PGT151 Fab (Fab, V domains shown)
VH: RVQLVESGGGVVQPGKSVRLSCVVSDFPFSKYPMYWVRQAPGKGLEWVAAISGDAWHVVYSNSVQGRFLVSRDNVKNTLYLEMNSLKIEDTAVYRCARMFQESGPPRLDRWSGRNYYYYSGMDVWGQGTTVTVSS
VL: DIVMTQTPLSLSVTPGQPASISCKSSESLRQSNGKTSLYWYRQKPGQSPQLLVFEVSNRFSGVSDRFVGSGSGTDFTLRISRVEAEDVGFYYCMQSKDFPLTFGGGTKVDLKR
In assay [3], B2 gave a Kd of 35 nM.
